From the Immune Epitope Database (IEDB) come the findings set out here.

A value given as a limit tells only on which side of the number the result lay.

One may read the IC50 as the concentration at which inhibition is half-maximal.

In assay [1] the target is HLA-A*68:02. Briefly: IEDB peptide-MHC binding, cellular MHC/competitive/fluorescence; ≥ and ≤ were set here for values at or beyond the usual limits of such assays.
For assay [2], the target named is HLA-A*02:06. Briefly: IEDB peptide-MHC binding, purified MHC/competitive/radioactivity; ≥ and ≤ were set here for values at or beyond the usual limits of such assays.
Assay [3] has as its target HLA-A*02:01. Described as above.
Assay [4] deals with HLA-A*02:03. The assay is described as above.
Assay [5] deals with HLA-A*02:02. The description is as above.
Assay [6] has as its target HLA-A*02:01. In words: IEDB peptide-MHC binding, cellular MHC/competitive/fluorescence; ≥ and ≤ were set here for values at or beyond the usual limits of such assays.
The target in assay [7] is HLA-A*68:02. In words: IEDB peptide-MHC binding, purified MHC/competitive/radioactivity; ≥ and ≤ were set here for values at or beyond the usual limits of such assays.
[8] abbreviates: source organism: Vaccinia virus WR.
Setting [9] is: source organism: Influenza A virus.
Where [10] appears, read: source organism: Hepacivirus hominis.
Setting [11] is: source organism: Mammarenavirus brazilense.

On to AAVTLNRIKI, for which the IC50 in assay [1] (setting [8]) was determined as 5980 nM; in assay [2] (setting [8]), 1920 nM; in assay [3] (setting [8]), 2320 nM; in assay [4] (setting [8]) it was 3490 nM; in assay [5] (setting [8]), 830 nM.
As for AIMDKNIML, the IC50 in assay [1] (setting [9]) was found to be 13000 nM; in assay [2] (setting [9]), 304 nM; in assay [3] (setting [9]), 75 nM; in assay [4] (setting [9]), 802 nM; in assay [5] (setting [9]), 153 nM.
As to AIYVFCISL, the IC50 is 5470 nM in assay [1] (source organism: SARS-CoV1); 48 nM in assay [2] (source organism: SARS-CoV1); 119 nM in assay [3] (source organism: SARS-CoV1); 201 nM in assay [4] (source organism: SARS-CoV1); 143 nM in assay [5] (source organism: SARS-CoV1).
With ALALEQYGI, the IC50 was determined as 40400 nM in assay [1] (setting [8]); 548 nM in assay [2] (setting [8]); 30 nM in assay [3] (setting [8]); 40 nM in assay [4] (setting [8]); 0.69 nM in assay [5] (setting [8]).
With ALCKVTVPT, the IC50 in assay [1] (setting [8]) was ≥ 70000 nM; in assay [2] (setting [8]), 210 nM; in assay [4] (setting [8]) it was 130 nM; in assay [5] (setting [8]) it was 110 nM.
With ALDCQIYGA, the IC50 in assay [1] (setting [10]) was ≥ 70000 nM; in assay [2] (setting [10]), 1200 nM; in assay [3] (setting [10]), 143 nM; in assay [4] (setting [10]) it was 1800 nM; in assay [5] (setting [10]), 1590 nM.
For ALDGVLSTFV, the IC50 worked out at 5200 nM in assay [1] (source organism: SARS-CoV1); 140 nM in assay [2] (source organism: SARS-CoV1); 28 nM in assay [3] (source organism: SARS-CoV1); 28 nM in assay [4] (source organism: SARS-CoV1); 3.3 nM in assay [5] (source organism: SARS-CoV1).
As for ALEQYGIENT, the IC50 in assay [1] (setting [8]) was 21800 nM; in assay [2] (setting [8]), 1270 nM; in assay [3] (setting [8]), 1450 nM; in assay [4] (setting [8]) it was 2160 nM; in assay [5] (setting [8]) it was 3150 nM.
ALLADKFPV: the IC50 amounted to 12900 nM in assay [1] (source organism: SARS-CoV1); 23 nM in assay [2] (source organism: SARS-CoV1); 1.7 nM in assay [3] (source organism: SARS-CoV1); 604 nM in assay [4] (source organism: SARS-CoV1); 29 nM in assay [5] (source organism: SARS-CoV1).
The matching figures for ALLFLMSFT: 16000 nM, 128 nM, 406 nM, 1990 nM and 2830 nM.
Consider ALQLLLEV, for which the IC50 in assay [1] (setting [9]) is ≥ 70000 nM.
Regarding AMDSNTLEL, the IC50 in assay [1] (setting [9]) is ≥ 70000 nM; in assay [2] (setting [9]) it was 1950 nM; in assay [4] (setting [9]), 524 nM; in assay [5] (setting [9]), 254 nM.
Take AMWLLLLSI: the IC50 in assay [1] (source organism: SARS-CoV1) was 27700 nM; in assay [2] (source organism: SARS-CoV1), 268 nM; in assay [4] (source organism: SARS-CoV1), 205 nM; in assay [5] (source organism: SARS-CoV1), 357 nM.
For the sequence GLISLILQI, the IC50 is 12400 nM in assay [1] (setting [9]), 205 nM in assay [2] (setting [9]), 5.4 nM in assay [4] (setting [9]) and 27 nM in assay [5] (setting [9]).
On to GLIYNRMGA, for which the concentration for half-maximal inhibition (IC50) in assay [6] (setting [9]) is 16700 nM; in assay [1] (setting [9]), ≥ 70000 nM.
As to ILGFVFTL, the results for the IC50 in assay [1] (setting [9]) and in assay [3] (setting [9]) were ≥ 70000 nM and 1.2 nM, respectively.
ILGFVFTLTV came in with an IC50 in assay [1] (setting [9]) of 5020 nM.
For KVDDTFYYV, in assay [1] (setting [8]), the half-inhibitory concentration (IC50) worked out at 45500 nM.
Consider LLGCIITSL, for which the IC50 in assay [1] (setting [10]) was ≥ 70000 nM; in assay [2] (setting [10]), 3130 nM; in assay [4] (setting [10]) it was 121 nM; in assay [5] (setting [10]) it was 79 nM.
As to LMYKGLPWNV, the IC50 in assay [1] (source organism: SARS-CoV1) was found to be 5400 nM; in assay [2] (source organism: SARS-CoV1) it was 37 nM; in assay [4] (source organism: SARS-CoV1), 5.3 nM; in assay [5] (source organism: SARS-CoV1), 1.8 nM.
Take LSNCVHPAV: the 50% inhibitory concentration (IC50) in assay [6] (setting [11]) amounted to 12200 nM; in assay [2] (setting [11]) it was 461 nM; in assay [4] (setting [11]), 1100 nM; in assay [7] (setting [11]) it was 682 nM; in assay [5] (setting [11]) it was 427 nM.
As to LTGTFVTAFI, the concentration for half-maximal inhibition (IC50) in assay [6] (setting [8]) was found to be 5050 nM; in assay [2] (setting [8]), 413 nM; in assay [4] (setting [8]), 596 nM; in assay [7] (setting [8]), 109 nM; in assay [5] (setting [8]) it was 672 nM.
On to LTSVDIETAI, for which the IC50 in assay [6] (setting [8]) came to 6730 nM; in assay [2] (setting [8]), 3130 nM; in assay [4] (setting [8]), 2150 nM; in assay [7] (setting [8]), 221 nM; in assay [5] (setting [8]) it was 509 nM.
The matching figures for LVAEHRFENM: ≥ 70000 nM, 723 nM, 462 nM, 1400 nM and 2050 nM.
On to LVFNSISARA, for which the IC50 in assay [6] (setting [8]) turned out to be 15900 nM; in assay [2] (setting [8]), 702 nM; in assay [4] (setting [8]), 254 nM; in assay [7] (setting [8]), 168 nM; in assay [5] (setting [8]) it was 1270 nM.
The matching figures for LVKESMASL: 14300 nM, 136 nM, 9.5 nM, 2070 nM and 1120 nM.
As for MMMNWSPTT, the IC50 in assay [1] (setting [10]) stood at 17900 nM; in assay [2] (setting [10]), 1230 nM; in assay [4] (setting [10]) it was 106 nM; in assay [5] (setting [10]) it was 311 nM.
On to NASKTINALV, for which the IC50 in assay [6] (setting [8]) stood at 8460 nM; in assay [2] (setting [8]), 3220 nM; in assay [4] (setting [8]), 274 nM; in assay [7] (setting [8]), 21 nM; in assay [5] (setting [8]), 765 nM.
The matching figures for NIKISLNEIL: 9630 nM, 557 nM, 1390 nM, 1610 nM and 705 nM.
The matching figures for NITTLLNET: 39200 nM, 2310 nM, 2900 nM, 1540 nM and 1300 nM.
Turning to NITTLLNETA, the concentration for half-maximal inhibition (IC50) in assay [6] (setting [8]) was 5680 nM; in assay [2] (setting [8]), 1130 nM; in assay [4] (setting [8]), 106 nM; in assay [7] (setting [8]), 1720 nM; in assay [5] (setting [8]) it was 218 nM.
The matching figures for PASISSVLTI: 5910 nM, 1550 nM, 83 nM, 4510 nM and 1360 nM.
The matching figures for PLHIVCSKT: 7940 nM, 3890 nM, 2150 nM, 1880 nM and 997 nM.
As for RLIDFLKDV, the IC50 amounted to 31500 nM in assay [1] (setting [9]), 65 nM in assay [2] (setting [9]), 7.3 nM in assay [4] (setting [9]) and 16 nM in assay [5] (setting [9]).
In the case of RQDYRRSINV, the IC50 worked out at 10200 nM in assay [6] (setting [8]); 2220 nM in assay [2] (setting [8]); 375 nM in assay [4] (setting [8]); 3970 nM in assay [7] (setting [8]); 1010 nM in assay [5] (setting [8]).
The matching figures for SAEVERLMEL: 7910 nM, 1250 nM, 2500 nM, 2640 nM and 1280 nM.
The matching figures for SAVFKDSFL: 6060 nM, 1140 nM, 536 nM, 110 nM and 231 nM.
For the sequence SIAMLKSKNI, the IC50 stood at 14000 nM in assay [6] (setting [8]); 259 nM in assay [2] (setting [8]); 55 nM in assay [4] (setting [8]); 2100 nM in assay [7] (setting [8]); 1090 nM in assay [5] (setting [8]).
The matching figures for SIMSMMNIT: 7140 nM, 1760 nM, 681 nM, 2370 nM and 4970 nM.
Take SIRCVKYLL: the IC50 in assay [6] (setting [8]) is 7820 nM; in assay [2] (setting [8]), 2880 nM; in assay [4] (setting [8]) it was 56 nM; in assay [7] (setting [8]), 244 nM; in assay [5] (setting [8]), 107 nM.
The matching figures for STAEQLSKYV: 8210 nM, 697 nM, 1870 nM, 28 nM and 1060 nM.
On to STFNMWREIL, for which the IC50 came to 6000 nM in assay [6] (setting [8]); 3360 nM in assay [2] (setting [8]); 907 nM in assay [4] (setting [8]); 67 nM in assay [7] (setting [8]); 3120 nM in assay [5] (setting [8]).
The matching figures for TITTFIPISA: 9690 nM, 4840 nM, 176 nM, 304 nM and 4060 nM.
With TIVSRSSRGV, the IC50 in assay [6] (setting [8]) amounted to 11300 nM; in assay [2] (setting [8]), 3740 nM; in assay [4] (setting [8]), 11 nM; in assay [7] (setting [8]), 1260 nM; in assay [5] (setting [8]), 4700 nM.
The matching figures for TTNNLLEQL: 40600 nM, 3040 nM, 1420 nM, 48 nM and 122 nM.
For VLPFDIKYI, the IC50 in assay [1] (setting [8]) worked out at 9870 nM; in assay [2] (setting [8]), 506 nM; in assay [4] (setting [8]) it was 9.7 nM; in assay [5] (setting [8]) it was 135 nM.
On to YAGTIKESL, for which the IC50 in assay [6] (setting [8]) worked out at 21100 nM; in assay [2] (setting [8]), 3300 nM; in assay [4] (setting [8]), 2490 nM; in assay [7] (setting [8]), 361 nM; in assay [5] (setting [8]) it was 2070 nM.
The matching figures for YAGTIKESLL: 21900 nM, 1760 nM, 4040 nM, 1910 nM and 1020 nM.
As to YIESKAKQL, the half-maximal inhibitory concentration (IC50) in assay [6] (setting [8]) came out at 9620 nM; in assay [2] (setting [8]), 2990 nM; in assay [4] (setting [8]), 439 nM; in assay [7] (setting [8]), 1340 nM; in assay [5] (setting [8]) it was 144 nM.
The matching figures for YTFAISYCRA: 10300 nM, 37 nM, 38 nM, 4 nM and 325 nM.
The matching figures for YVIRHVDGKI: 8590 nM, 522 nM, 114 nM, 22 nM and 621 nM.
